Where a chain is given by its changes, count along the chain named.
T1: topo VI H2TH-EEE (Methanosarcina mazei, UniProt Q8PUB7;Q8PUB8 1-369;1-621, R263E;K268E;K308E)
T1 sequence 1: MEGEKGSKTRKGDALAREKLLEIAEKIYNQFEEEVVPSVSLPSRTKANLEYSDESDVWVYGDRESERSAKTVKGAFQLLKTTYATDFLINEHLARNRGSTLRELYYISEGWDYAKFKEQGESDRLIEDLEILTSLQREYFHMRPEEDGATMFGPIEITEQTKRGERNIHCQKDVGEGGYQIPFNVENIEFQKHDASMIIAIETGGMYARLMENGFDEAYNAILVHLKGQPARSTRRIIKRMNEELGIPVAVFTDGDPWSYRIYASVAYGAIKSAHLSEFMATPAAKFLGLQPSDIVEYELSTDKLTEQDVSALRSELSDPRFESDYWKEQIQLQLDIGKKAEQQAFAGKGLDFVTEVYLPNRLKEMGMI
T1 sequence 2: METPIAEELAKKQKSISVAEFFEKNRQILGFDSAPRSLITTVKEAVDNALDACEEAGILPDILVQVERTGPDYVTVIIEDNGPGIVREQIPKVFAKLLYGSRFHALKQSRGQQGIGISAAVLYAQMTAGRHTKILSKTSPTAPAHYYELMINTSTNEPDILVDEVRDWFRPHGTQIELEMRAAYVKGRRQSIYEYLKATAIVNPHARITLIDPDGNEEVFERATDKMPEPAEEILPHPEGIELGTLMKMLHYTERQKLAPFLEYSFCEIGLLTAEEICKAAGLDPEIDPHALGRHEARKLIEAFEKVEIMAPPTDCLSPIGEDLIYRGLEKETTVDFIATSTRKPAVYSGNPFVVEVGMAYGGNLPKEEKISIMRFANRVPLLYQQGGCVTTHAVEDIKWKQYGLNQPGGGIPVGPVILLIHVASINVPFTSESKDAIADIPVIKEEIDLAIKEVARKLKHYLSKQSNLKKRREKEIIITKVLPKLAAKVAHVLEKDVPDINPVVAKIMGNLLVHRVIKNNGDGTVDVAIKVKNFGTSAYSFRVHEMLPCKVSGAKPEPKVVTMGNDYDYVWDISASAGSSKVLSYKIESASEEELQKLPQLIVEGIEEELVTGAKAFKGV

T2: topo VI KGRR-AAA (Methanosarcina mazei, UniProt Q8PUB7;Q8PUB8 1-369;1-621, K186A;R188A;R189A)
T2 sequence 1: T1 sequence 1
T2 sequence 2: T1 sequence 2 with K186A, R188A, R189A, E263R, E268K, E308K

T3: topo VI KGRR-EEE (Methanosarcina mazei, UniProt Q8PUB7;Q8PUB8 1-369;1-621, K186E;R188E;R189E)
T3 sequence 1: T1 sequence 1
T3 sequence 2: T1 sequence 2 with K186E, R188E, R189E, E263R, E268K, E308K

B1: 40 bp duplex (dsDNA)
DNA 1: CTATTGAAAAAGGAAGAGTATGAGTATTCAACATTTCCGC
DNA 2: GCGGAAATGTTGAATACTCATACTCTTCCTTTTTCAATAG
B2: 60 bp duplex (dsDNA)
DNA 1: CGCTTCAATAATATTGAAAAAGGAAGAGTATGAGTATTCAACATTTCCGTGTCGCCCTTC
DNA 2: GAAGGGCGACACGGAAATGTTGAATACTCATACTCTTCCTTTTTCAATATTATTGAAGCG
B3: 30 bp duplex (dsDNA)
DNA 1: CAAAAAGGAAGAGTATGAGTATTCAACATC
DNA 2: GATGTTGAATACTCATACTCTTCCTTTTTG
B4: 70 bp duplex (dsDNA)
DNA 1: CCAAATGCTTCAATAATATTGAAAAAGGAAGAGTATGAGTATTCAACATTTCCGTGTCGCCCTTATTCCC
DNA 2: GGGAATAAGGGCGACACGGAAATGTTGAATACTCATACTCTTCCTTTTTCAATATTATTGAAGCATTTGG
B5: 20 bp duplex (dsDNA)
DNA 1: CGGAAGAGTATGAGTATTCG
DNA 2: CGAATACTCATACTCTTCCG

Each binder was assayed against T1, topo VI H2TH-EEE (assay: fluorescence anisotropy; Hill h 1.6; FA: 20 nM probe, 50 mM K-glutamate, 20 mM HEPES-KOH pH 7.5, 10 mM MgCl2, 5% glycerol, 1 mM TCEP, 0.1 mg/mL BSA; incubated on ice, read at ambient temperature; competition with 100 nM enzyme). Details: protein: recombinant; tags: N-terminal His6-TEV on Top6B, removed; chain copies: 2;2; label: 5'-FAM strand 1; blunt.

Binder	Kd [nM]
B1	45 ± 2

What follows are binders tested against T2, topo VI KGRR-AAA (assay: fluorescence anisotropy; FA: 20 nM probe, 50 mM K-glutamate, 20 mM HEPES-KOH pH 7.5, 10 mM MgCl2, 5% glycerol, 1 mM TCEP, 0.1 mg/mL BSA; incubated on ice, read at ambient temperature; competition with 100 nM enzyme). Details: protein: recombinant; tags: N-terminal His6-TEV on Top6B, removed; chain copies: 2;2; label: 5'-FAM strand 1; blunt.

Binder	Kd [nM]
B2	99 ± 2

What follows are binders tested against T3, topo VI KGRR-EEE (assay: fluorescence anisotropy; Fluorescence anisotropy, 20 nM FAM-labelled DNA, topo VI 0 and 3.9-4000 nM, no nucleotide; buffer, salt, pH and temperature not given in supplied text). Details: protein: recombinant; tags: N-terminal His6-TEV on Top6B, removed; chain copies: 2;2; label: 5'-FAM strand 1; blunt.

Binder	Kd [nM]
B1	75 ± 4
B3	82 ± 7
B4	193 ± 4
B2	119 ± 3
B5	338 ± 15

These binders were tested against T2, topo VI KGRR-AAA in the same assay as above. Details: protein: recombinant; tags: N-terminal His6-TEV on Top6B, removed; chain copies: 2;2; label: 5'-FAM strand 1; blunt.

Binder	Kd [nM]
B1	67 ± 4
B3	65 ± 4
B4	124 ± 6
B2	99 ± 2
B5	338 ± 11
